Measured values from publication PMC4186839, “Streptomyces coelicolor SCO4226 Is a Nickel Binding Protein” (PLoS ONE, 2014).

Target: the molecule itself
Test: crystal structure; Se-Met labelled apo-SCO4226 crystals (1.30 Å) and the same crystals soaked about 1 hr in 0.8 M sodium citrate pH 6.5 with 0.8 M NiSO4 (Ni-SCO4226, 2.04 Å); space group P21; one dimer in each asymmetric unit

B1: SCO4226 (natural protein, Streptomyces coelicolor A3(2), UniProt Q9FCE4 1-82, looked up)
chain: MAHFMDVHRGMHGITSDQLHQAHQADLAVEKDENVHFEQAWADPASGTIYCLSEGPSAEAVQRVHERAGHKADEIHEVPLSA
modifications: seleno-methionine in place of methionine (Se-Met substituted protein)
notes: SCO4226, 82-residue hypothetical protein encoded by the open reading frame SCO4226 of Streptomyces coelicolor A3(2); residues up to Ala82 (C-terminal carboxylate) are seen in the structure; No tag is named here; also called apo-SCO4226; Se-apo-SCO4226; source: E. coli B834 (DE3), Se-Met labelled, purified (nickel-chelating Sepharose, Superdex 75 gel filtration)
- stoichiometry N: 2
